Laboratory results: patent US20220144953A1 (published 2022)

Molecular target: Parent
Assay: antigen titration binding curve (Norm. RFU)

Kd: 165 nM
B1: Mouse (receptor)
chain: FKVTTPYSLYVCPEGQNATLTCRILGPVSKGHDVTIYKTWYLSSRGEVQMCKEHRPIRNFTLQHLQHHGSHLKANASHDQPQKHGLELASDHHGNFSITLRNVTPRDSGLYCCLVIELKNHHPEQRFYGSMELQVQAGKGSGSTCMASNEQDSDSITAA
